This note sets out measurements from PMC9949255.

The target in assay [1] is recombinant HIV-1 gp120 ZM109 (HIV-1 strain ZM109). Briefly: BLI; Octet Red96; recombinant gp120 coupled to AR2G biosensors, dipped into titrated SLBR-N; PBS with 0.1% BSA and 0.02% Tween 20; 1:1 global fit. A general note: Biolayer interferometry detects binding as a change in optical thickness at a sensor tip.
The target is the same in assay [2]. Briefly: BLI; Octet Red96; anti-Env mAb 2219 (5 μg/mL) on AHC biosensors, then recombinant gp120 ZM109 (5 μg/mL), dipped into titrated FimH; PBS with 0.1% BSA and 0.02% Tween 20; 1:1 global fit.

One may read the Kd as a measure of binding affinity in units of concentration. With “Streptococcal Siglec-like lectin SLBR-N, GST-tagged (domain or fragment)”, the Kd in assay [1] worked out at 40.3 nM.
For the substance “recombinant FimH protein (lectin domain only) (from UniProt P08191 22-179) (domain or fragment)”, the dissociation constant Kd in assay [2] came to 360 nM.
